Results reported in patent US20230293647A1 (AUTOLUS, published 2023).

Legend:
Test in all cases: cell microarray
SLC26A4 = target: T1, SLC26A4 (human, UniProt O43511)
T1 sequence (looked up): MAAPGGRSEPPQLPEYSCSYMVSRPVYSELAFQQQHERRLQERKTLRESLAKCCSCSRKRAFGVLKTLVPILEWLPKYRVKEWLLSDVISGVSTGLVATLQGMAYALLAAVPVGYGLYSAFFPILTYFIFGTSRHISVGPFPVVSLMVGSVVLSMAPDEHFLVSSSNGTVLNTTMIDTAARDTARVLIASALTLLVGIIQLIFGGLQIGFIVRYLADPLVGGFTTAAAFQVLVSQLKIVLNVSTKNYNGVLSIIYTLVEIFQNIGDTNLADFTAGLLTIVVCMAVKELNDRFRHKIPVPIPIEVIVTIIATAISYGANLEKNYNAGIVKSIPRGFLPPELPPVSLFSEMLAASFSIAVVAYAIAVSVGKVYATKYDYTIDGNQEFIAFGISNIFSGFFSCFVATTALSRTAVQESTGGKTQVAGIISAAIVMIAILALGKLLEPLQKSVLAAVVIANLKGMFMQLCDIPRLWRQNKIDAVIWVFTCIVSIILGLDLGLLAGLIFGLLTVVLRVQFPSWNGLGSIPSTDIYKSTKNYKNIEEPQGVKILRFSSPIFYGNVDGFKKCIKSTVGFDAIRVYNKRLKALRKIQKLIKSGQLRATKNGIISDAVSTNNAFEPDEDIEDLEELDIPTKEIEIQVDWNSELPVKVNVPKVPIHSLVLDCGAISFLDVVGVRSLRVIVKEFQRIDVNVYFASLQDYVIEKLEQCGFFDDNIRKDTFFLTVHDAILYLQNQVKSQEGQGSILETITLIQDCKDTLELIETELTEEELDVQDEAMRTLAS

SIGLEC15 = target: T2, SIGLEC15 (human, UniProt Q6ZMC9)
T2 sequence (looked up): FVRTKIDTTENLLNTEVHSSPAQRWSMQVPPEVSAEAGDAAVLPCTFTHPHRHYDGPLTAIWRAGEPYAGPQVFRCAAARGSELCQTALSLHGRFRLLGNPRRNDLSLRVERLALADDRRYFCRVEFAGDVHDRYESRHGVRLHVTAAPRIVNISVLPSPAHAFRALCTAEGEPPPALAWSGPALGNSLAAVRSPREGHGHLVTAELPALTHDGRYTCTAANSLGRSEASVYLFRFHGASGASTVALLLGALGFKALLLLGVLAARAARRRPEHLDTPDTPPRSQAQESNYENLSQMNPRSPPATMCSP

EGFR = EGFR (human, UniProt P00533)
[1] = target: SARS-CoV-2 full length Spike expressed on cells (SARS-CoV-2, UniProt P0DTC2 14-1273)
CD86 (cell microarray) = target: T3, CD86 (cell microarray) (human, UniProt P42081 24-329)
T3 sequence (looked up): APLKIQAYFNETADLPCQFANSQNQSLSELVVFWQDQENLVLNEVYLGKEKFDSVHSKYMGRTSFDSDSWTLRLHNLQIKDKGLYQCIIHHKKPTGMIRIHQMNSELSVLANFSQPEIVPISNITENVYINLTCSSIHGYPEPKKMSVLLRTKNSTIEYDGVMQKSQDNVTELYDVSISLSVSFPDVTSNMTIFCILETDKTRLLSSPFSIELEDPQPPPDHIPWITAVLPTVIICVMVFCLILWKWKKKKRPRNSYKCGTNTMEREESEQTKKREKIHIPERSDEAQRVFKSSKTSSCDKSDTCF

Measured: binding result

B1: Fc LALA-PG only construct with the ACE2 domain omitted (other)
chain: EPKSCDKTHTCPPCPAPEAAGGPSVFLFPPKPKDTLMISRTPEVTCVVVDVSHEDPEVKFNWYVDGVEVHNAKTKPREEQYNSTYRVVSVLTVLHQDWLNGKEYKCKVSNKALGAPIEKTISKAKGQPREPQVYTLPPSREEMTKNQVSLTCLVKGFYPSDIAVEWESNGQPENNYKTTPPVLDSDGSFFLYSKLTVDKSRWQQGNVFSCSVMHEALHNHYTQKSLSLSPGK
notes: also called control Fc (LALA-PG)
no binding: all assays above
